Laboratory results as given in paper PMC7709125, “Bringing the Heavy Chain to Light: Creating a Symmetric, Bivalent IgG-Like Bispecific” (Antibodies, 2020).

Biological target: T1, 5FV2 soluble VH domain targeting human VEGF (human)
T1 construct: also called anti-hVEGF VH domain; phage-derived VH domain 5FV2
Assay: SPR
Settings: both partners purified

T1 sequence (heavy, as listed by the source): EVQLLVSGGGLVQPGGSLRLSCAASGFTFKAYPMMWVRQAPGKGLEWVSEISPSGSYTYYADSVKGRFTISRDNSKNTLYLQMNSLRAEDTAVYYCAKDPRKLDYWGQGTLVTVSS

Kd: 3 nM
kon: 730000 M⁻¹ s⁻¹
B1: human vascular endothelial growth factor (VEGF) (ligand, UniProt P15692 1-395, looked up)
chain: APMAEGGGQNHHEVVKFMDVYQRSYCHPIETLVDIFQEYPDEIEYIFKPSCVPLMRCGGCCNDEGLECVPTEESNITMQIMRIKPHQGQHIGEMSFLQHNKCECRPKKDRARQENPCGPCSERRKHLFVQDPQTCKCSCKNTDSRCKARQLELNERTCRCDKPRR
notes: also called hVEGF; human VEGF; source: commercially available antigen
